# Variants at the floor of the assay were thinned out.
# B1: TPR 5TU (parent)
# chain: GGAUCUUCUCGAUCUAACAAAAAAGACAAAUCUGCCACAAAGCUUGAGAGCAUCUUCGGAUGCAGAGGCGGCAGCCUUCGGUGGCGCGAUAGCGCCAACGUUCUCAACUAUGACACGCAAAACGCGUGCUCCGUUGAAUGGAGUUUAUCAUG
# Variants of: B1
# Assay: polymerase ribozyme fitness, log enrichment relative to wild type (log ratio); higher = more active; in vitro selection for triplet polymerase activity
# Summary of the method: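 Mutant libraries were PCR-built and transcribed for each subunit of a heterodimeric triplet polymerase ribozyme and selected for one round in triplicate at −7 °C, frozen, before gel excision of extended constructs and streptavidin-bead capture. Input and output libraries were Illumina-sequenced, keeping genotypes with ≥10 input reads and ≥1 read per output. Fitness is a logarithmic ratio of genotype to wild-type enrichment, in base 2, using inverse-variance-weighted replicate averages.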
row,Variant,polymerase ribozyme fitness (log ratio)
1,GGAUCUUCUCGAUCUCACAAAAAAGACAAACCUGCCCCACAGCUUGAGAGCAUCUUCGGAUGCAGAGGCGGCAGCCUUCGGUGGCGCGAUAGCGGCAACAUUCUCAACUAUGAUACGCAAAACGCGUGCUCCGUUGAAUGGAGUUUAUCAUG [A16C U31C A37C A40C C95G G100A C114U],≤ -4.2
2,GGAUCUUCUCGAUCUCACAAAAAAGACAAAUCUGCCACAAAGCUUGAGAGCAUCAUCGGAUGCAGAGGCGGCAGCCUUCGGUGGCGCGAUAGCGCCAACGUUCUCAACUAUGACACGCAAAACGCGUGCUCCGUUGAAUGGGGUUUAUCGUG [A16C U55A A142G A150G],-3.06
3,GGAUCUUCUCGAUCUCACAAAAAAGACAAAUCUGCCACAAAGCUUGAGAGCAUCUUCCGGUGCAGAGGCGGCAGCCUUCGGUUGCGCGAUAGCGCCAACGUUCUCAACUAUGACAUGCAAAACGCGUGCUCCGUUGAAUGGAGUUUAUCAUG [A16C G58C A60G G83U C116U],-0.784
4,GGAUCUUCUCGAUCUCACAAAAAAGACAAAUCCGCCACAAAGCUUGAGAGCAUCUUCGGAUGCAGAGGCGGCAGCCAUCGGUGGCGCGAUAGCGCCAACGUUCUCAACUAUGACACGCAAAACGCGUGCUCCGUUGAAUGGAGUUUAUCAUG [A16C U33C U77A],≤ -4.2
5,GGAUCUUCUCGAUCUCACAAAAAAGACAAAUCUGCCACAAAGCUUGAGAGCAUCUUCGGAUGCAGAGGCGGCAGCCUUCGGUGGCGCGAUACCGCCAACGUUCUCAACUAUGACACGCAAAACGCGUGCUCCGUUGAAUGGAGUUUAUCAUG [A16C G92C],-1.11
6,GGAUCUUCUCGAUCUCACAAAAAAGACAAAUCUGCCACAAAGCUUGAGAGCAUCUUCGGAUGCAGAGGCGGCAGCCUUCGGUGGCUCGAUAGCGCCAACGUUCUCAACUAUGACACGCAAAACGCGUGCUCCGUUGAAUGGAGUUUAUCAUG [A16C G86U],-2.65
7,GGAUCUUCUCGAUCUCACAAAAAAGACAAAUCUGCCACAAAGCUUGAGAGCAUCUUCGGAUGCAGAGGCGGCAGCCUUCGGUGUCGCGAUAGCGCCAACGUUCUCAACUAUGACACGCAGAACGCGUGCUCCGUUGAAUGGAGUUUAUCAUG [A16C G84U A120G],-2.78
8,GGAUCUUCUCGAUCUCACAAAAAAGACAAAUCUGCCACAAAGCUUGAGAGCAUCUUCGGAAGCAGAGGCGGCAGCCUUCGGUGGCGCGGUAGCGCCAACGUUCUCAACUAUGACACGAAAAACGCGUGCUCCGUUGAAUGGAGUUUAUGAUG [A16C U61A A89G C118A C149G],≤ -4.2
9,GGAUCUUCUCGAUCUCACAAAAAAGACAAAUCUGCCACAAAGCUUGAGAGCAUCUCCGGAUGCAGAGGCGGCAGCCUUCGGUGGCGUGAUAGCGCCAACGUUCUCAACUAUGACACGCAAAACGCGUGCUCCGUUGAAUGGAGUUUAUCAUG [A16C U56C C87U],-2.13
10,GGAUCUUCUCGAUCUCACAAAAAAGACAAAUCUGCCACAAAGCUUGAGAGCAUCUUCGCAUGCAGAGGCGGCAGCCUUCGGUGGCGCGAUAGCGCCAACGUUCUCAACUAUGACACGCAAAACGCGUGCUCCGUUGAAUGGAGUUUAUCAUG [A16C G59C],-0.987
11,GGAUCUUCUCGAUCUCACAAAAAAGACAAAUCUGCCACAAAGCUUGAGAGCAUCUUCGGAAGCAGAAGCGGCAGCCUUCGGUGGCGUGAUAGCGCCAACGUUCUCAUCUAUGACACGCAAAACGCGUGCUCCGUUGAAUGGAGUUUAUCAUG [A16C U61A G67A C87U A107U],≤ -4.2
12,GGAUCUUCUCGAUCUCACAAAAAAGACAAACCUGCCACAAAGCUUGAGAACAUCUUCGGAUGCAGAGGCGGCAGCCUUCGGUGGCACGAUAGCGCCAACGUUCUCAACUAUGACACGCAAAACGCGUGCUCCGUUGAAUGGAGUUUAUCAUG [A16C U31C G50A G86A],-3.16
13,GGAUCUUCUCGAUCUCACAAAAAAGACAAAUCUGCCACAAAGCUUGAGAGCAUCUUCGGAUGCAGAGGCGGCAGCCUUCGGGGGCGCGAUAGCGCCAACGUUCUCAACUAUGACACGCAAAACGCGUGCUCCGUUGAAUGGAGUUUAUCAUG [A16C U82G],-1.06
14,GGAUCUUCUCGAUCUCACAAAAAAGACAAAUCUGCCACAAAGCUGGAGAGCAUCUUCGGAUGCAGAGGCGGCAGCCUUCGGUGGCGCGAUAGCGCCAACGUUCUCGACUAUGACACGCAAAACGCGUGCUCCGUUGAAUGGAGUUUAUCAUG [A16C U45G A106G],-0.613
15,GGAUCUUCUCGAUCUCACAAAAAAGACAAAUCUGCCACAAAGCUUGAGAGCAUCUUCGGAUGCAGAGGCGGCAGCCUUCGGUGGCGCGAUAGCGCCAACGGUCUCAACUAUGACACGCAAAACGCGAGCUCCGUUGAAUGGAGUUUAUCAUG [A16C U101G U127A],-3.71
16,GGAUCUUCUCGAUCUCACAAAAAAGACAAAUCUGCCACAAAGCUGGAGAGCAUCUUCGGAUGCAGAGGCGGCAGCCUUCGGUGGCGCGAUAGCGCCAACGUUCUCAACUAUGAUACGCAAAACGCGUGCUCCGUUGAAUGGAGUUUAUCAUG [A16C U45G C114U],-3.74
17,GGAUCUUCUCGAUCUCACAAAAAAGACAAAUCUGCCACAAAGCUUGAGAGCAUCUUCGAAUGCAGAGGCGGCAGCCUUCGGUGGGGCGAUAGCGCCAACGUUCUCAACUAUGACACGCAAAACGCUUGCUCCGUUGAAUGGAGUUUAUCAUG [A16C G59A C85G G126U],-2.76
18,GGAUCUUCUCGAUCUCACAAAAAAGACAAAUCUGCCACAAAGCUUGAGAGCAUCUUCGGAUGCAGAGGCGGCAGCCUUCGGUAGCGCGAUAGCACCAACGUUCUCAACUAUGACACGCAAAACGCGUGCUCCGUUGAAUGGAGUUUAUCAUG [A16C G83A G94A],-2.79
19,GGAUCUUCUCGAUCUCACAAAAAAGACAAAUCUGCCACAAAGCUUGAGAGCAUCUUCGGAUGCAGAGGCGGCAGCCUUCGGUGGCGCGAUAGCGCCAACGGUCUCAACUAUGACACGCAAAACGCGUGCUCCGUUGAAUGGAGUUUAUCAUG [A16C U101G],-0.303

row,Variant,polymerase ribozyme fitness (log ratio)
1,GGAUCUUCUCGAUCUCACAAAAAAGACAAAUCUGCCACAAAGCUUGAGAGCAUCUACGGAUGCAGAGGCGGCAGCCUUCGGUGGCGCGAUAGCGCCAACGUUAUCAACUAUGACACGCAAAACUCGUGCUCCGUUGAAUGGACUUUAUCAUG [A16C U56A C103A G124U G143C],≤ -4.2
2,GGAUCUUCUCGAUCUCACAAAAAAGACAAAUCUGCCACAAAGCUUGAGAGCAUCUUCGGAUGCAGAGGCGGCAGCCUUCGGUGGCGCAAUAGCGCCAACGUUCUCAACUAUGACAGGCAAAACGCGUGCUCCGUUGAAUGGAGUUUAUCAUG [A16C G88A C116G],-4.19
3,GGAUCUUCUCGAUCUCACAAAAAAGACAAAUCUGCCACAAAGCUUGAGAGCAUCUUCGGAUGCAGAGGCGGCAGCCUUCGGUGGCGCGAUAGCGCCAACGUUCUCAACUAUUACACGCAAAACGCGUGCUCCGUUGAAUGGAGUUUAUCUUG [A16C G112U A150U],≤ -4.2
4,GGAUCUUCUCGAUCUCACAAAAAAGACAAAAAUGCCACAAAGCUUGAGAGCAUCUUCGGAUGCAGAGGCGGCAGCCUUCGGUGGCGCGAUACCGCCCCCGUUAUCAACUAUGACAUGCAAAACGUGUGCUCCGUUGAAUGGAGUUUAUCAUG [A16C U31A C32A G92C A97C A98C C103A C116U C125U],≤ -4.2
5,GGAUCUUCUCGAUCUGCCAAAAAAGACAAAACUGCCACAAAGCUUGAGAGCAUCGUGGGAUGCAGAGGCGGCAGCCUUCGGUGGCGCGAUAGCGCCAACGUUCUCAACUAUGACCCGCAAAACGCGUGCUCCGUAGAAUGGAGUUUAUCAUG [A16G A17C U31A U55G C57G A115C U135A],-3.86
6,GGAUCUUCUCGAUCUCACAAAAAAGACAAAUCUGCCACAAAGCUUGAGAGCAUCUUCGGAUGCAGAGGCGGCAGCCUUCGGUGGCGCGAUAGCGCCAACGUUCUCAACUAUGACACGCAAAACGCGUGCUCCGUUGAAUGGAGGUUAUCAUG [A16C U144G],-0.499
7,GGAUCUUCUCGAUCUGGCCAAAAAGACAAAUCUGCCACAAAGCUUGAGAACAUCUUCGGAUGCAGAGGCGGCAGCCUUCGGUGGCGCGAUAGCGCCAACGUUCUCAACUAUGACACGCAAAACGCGUGCUCCGUUGAAUGGAGUUUAUCAUG [A16G A17G A19C G50A],0.928
8,GGAUCUUCUCGAUCUCACAAAAAAGACAAAUCUGCCACAAAGCUUGAGAGCAUCUUCGGAUGCAGAGGCGGCAGCCUUCGGUGGCGCGAUAGCACCAACGUUCUCAACUAUGACACGCAAAACGCGUGCUCCGUUGAAUGGAGUUUAUCAUG [A16C G94A],-1.78
9,GGAUCUUCUCGAUCUCACAAAAAAGACAAAUCUGCCACAAAGCUUGAGAGCAUCUUCGGAUGCAGAGGCGGCAGCCUUCGGUGGCGCGAUAGCUCCAACGUUCUCAGCUAUGACAAGCAAAACGCGUGCUCUGUUGAAUGGGGUUUAUCAUG [A16C G94U A107G C116A C132U A142G],≤ -4.2
10,GGAUCUUCUCGAUCUCACAAAAAAGACAAAUCUGCCACAAAGCGUGGGAGAAUCUUCGGCUGCAGAGGCGGCAGCCAUCGGUGGCGCGAUAGCGCCAACGUUCUCAACUAUGACACGCAAAACGCGUGCUCCGUUGAAUGGAGUUUAUCAUG [A16C U44G A47G C51A A60C U77A],≤ -4.2
11,GGAUCUUCUCGAUCUCACAAAAAAGACAAAUCUGCCACAAAGCUUGAGAGCAUCAUCGGAUGCAGAGGCGGCAGCCUUCGGUGGCGCGAUAGCGCCAACGUUCUCAACUAUGACACGCAAAACGCGUGCUCCGUUGAAUGGAGUUUAUCAUG [A16C U55A],-1.28
12,GGAUCUUCUCGAUCUCACAAAAAAGACAAAUCUGCCACAAAGCUUGAGAGCAUCAUCGGAUGCAGAGGCGGCAGCCUUCGGUGGCGCGAUAGCGCCAACGUUCUCGACUAUGACACGCAAAACGCGUGCUCCGUUGAAUGGAGUUUAUCAUG [A16C U55A A106G],-1.85
13,GGAUCUUCUCGAUCUCACAAAAAAGACAAAUCUGCCACAAAGCUUGAGAGCAUCUUCGGAUCCAGAGGCGGCAGCCUUCGGUGGCGCGAUAGCGCCAACGUUCUCAACUAUGACACGCAAAACGCGUGCUCCGUUGAAUGGAGUUUAUCAUG [A16C G62C],-2.47
14,GGAUCUUCUCGAUCUCACAAAAAAGACAAAUCUGCCACAAAGCUUGAGAGCAUCUUCGGAUGCAGAGGCGGCAGCCUUCGGUGGCGCGAUAGCACCAACGUUCUCAACUAUGACAGGCAAAACGCGUGCUCCGUUGAAUGGAGUUUAUCAUG [A16C G94A C116G],-0.496
15,GGAUCUUCUCGAUCUCACAAAAAAGACAAAUCUGCCACAAAGCUUGAGAGCAUCUUCGGAUGCAGAGGCGGCAGCCUUCGGUGGCGCGAUAGCGCCAACGUUCUCAACUAUGACACGCAAAACGCGUGCUCCGUUGAAUGAAGUUUAUCAUG [A16C G141A],-0.406
16,GGAUCUUCUCGAUCUCACAAAAAAGACAAAUCUGCCACAAAGCUUGAGAGCAUCUUCGAAUGCAGAGGCGGCAGCAUUCGGUGGGGCGAUAGCGCCAACGUUCUCAACUAUGACACGCAAAACGCGUGCUCCGUUGAAAGGAGUUUAUCAUG [A16C G59A C76A C85G U139A],≤ -4.2
17,GGAUCUUCUCGAUCUCACAAAAAAGACAAAUCUGCCACAAAGCAUGAGAGCAUCUUCGGAUGCAGAGGGGGCAGGCUUCGGUGGCGCGAUUGCGCCAACGUUCUCAACUAUGAGACCCAAAACGCGUGCUCCGUUGAAUGGAGUUUAUCAUG [A16C U44A C69G C75G A91U C114G G117C],≤ -4.2
18,GGAUCUUCUCGAUCUCACAAAAAAGACAAAUCUGCCACAAAGCUUGAGAGCAUCUUCGGAUGCAGAGGCGGCAGCCUUCGGUGACGCGAUAGCGCCAACGUUCUGAACUAUGAUACGCAAAACGAGUGCUCCGUUGAAUGGAGAUUAUCAGG [A16C G84A C105G C114U C125A U144A U151G],≤ -4.2
19,GGAUCUUCUCGAUCUCACAAAAAAGACAAAUCUGCCACAAAGCUUGAGAGCAUCUUCGGAUGCAGAGGCGGCAGCCUUCGGUGGCGCGAUAGCGCCAACGUUCUCAACUAUGACACGCAAAACGCAUGCUCCGUUGAAUGGAGUUUAUCAUG [A16C G126A],-0.0283

# Reference: the RNAGym collection of RNA variant scans (doi:10.1073/pnas.2313332121)
